The data set is described as follows: amyloid nucleation score (Sup35N fusion, yeast selection) (log enrichment); library NNK1; higher = more nucleation; inactive = no reads after selection. An outline of the steps:
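On medium lacking adenine and uracil, psi-negative yeast expressing peptides of 20 random codons fused to Sup35N were grown 7 days at 30°C after a 24-hour induction with 100 μM copper sulfate. Illumina sequencing of input and output plasmid inserts gave the reads, and sequences under 100 input reads were excluded. The nucleation score is the DiMSum log enrichment of output over input reads, centred on the mode score of non-aggregating sequences.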

± gives the uncertainty stated by the source.

TSNSS: the amyloid nucleation score is -1.07 ± 0.52. The result for LVNGTMFINPCYVQGRCKEM reads 2.27 ± 0.12.

HGYHVHDGALLNQHNIS: the amyloid nucleation score was found to be 0.004 ± 0.57. The result for LTFLYLYWNFNIYGIYGTTI reads 0.91 ± 0.19. The result for TAYIIKHSFWLGPFNLGSLM reads 3.88 ± 0.12; that for DWVYITLNGLLW, -0.145 ± 0.46; that for YWSFGGWVAQRVCMESVFVK, -2.27 ± 1.6. In the case of GDNVFFMLERALFVVRNRRV it was -0.386 ± 0.86; in that of SKMDGVATRYRYNAMRADVK, 0.181 ± 0.2. The substance CDWYDQMREVGESYVALSYN showed an amyloid nucleation score of -0.386 ± 0.48. In the case of FPLGSFIDLQRDMGIN it was 0.53 ± 0.4.

Turning to TRFMMRVRIVSDCDTVNFAC, the amyloid nucleation score is -0.379 ± 0.62. Regarding VESDKCQLGTLSIMYICFFL, the amyloid nucleation score result is “inactive”.

Substance FIFVIDTRVLRTLINCPTPS had an amyloid nucleation score of -0.047 ± 0.36.

Regarding LSAKLQFCITIEYALRVTKC, the amyloid nucleation score is -0.106 ± 1.7. The result for QCKRFCCIWVCNADFVAGAW reads 7.745 ± 0.045; that for RYLSHHP, 0.609 ± 0.55. The result for GYSLYRM reads 6.746 ± 0.044.

The substance CLVVVISS came in with an amyloid nucleation score of -0.369 ± 0.57. The result for SHFFLIT reads -0.48 ± 1.5; that for SCPRVTIFCCSGILGREWGK, 7.189 ± 0.045; that for CLFRCVVEPLVIGYTKCAS, “inactive”. The result for WCSLRSDW reads “inactive”; that for VDLLGTTDGRSRVLFRIRTR, 0.151 ± 0.59; that for YTRFN, -1.66 ± 1.6. NSFSDSHRWKPGRRNRCKRG yielded an amyloid nucleation score of 1.07 ± 0.97.

As to PTETVMMRRIFGSRGPWYAV, the amyloid nucleation score amounted to 0.286 ± 1.4. In the case of CFVGMMKRFR it was 1.36 ± 0.4; in that of ARTMKDYPLRTYVYYAPAGY, 0.453 ± 0.75; in that of LNLRGDRN, 0.304 ± 0.29. In the case of TAKRLAT it was 0.21 ± 0.8. In the case of AYLVPGQYVSPSFRFLTKNE it was 0.215 ± 0.68; in that of QRIVTG, -0.123 ± 0.59.

The substance VVWWGEQHGLYSYFGHGIGI had an amyloid nucleation score of 0.968 ± 0.63. DKERSGTKQYNSYG gave an amyloid nucleation score of -0.039 ± 0.73.

Turning to VSVFNAQFIDRRGCR, the amyloid nucleation score is 5.16 ± 0.063. In the case of GFTGFNRIGVLVGWKCN it was 0.763 ± 0.92. In turn, AYTCHYQGGGLVNLVDVGYG gave an amyloid nucleation score of 0.353 ± 0.69. The result for NCSLILTTKRNRWYLQRLRF reads 0.467 ± 0.33. In the case of MNTWDMSLIPWSLARWVNTA, the amyloid nucleation score was 0.063 ± 0.4. In the case of FHTNMTVSYQTKLVLDRYWN it was 3.42 ± 0.14. The result for RYTLILH reads -0.355 ± 0.75. FFQTLDWV showed an amyloid nucleation score of -1.13 ± 2.4.

With FGLAGHFYNWNYIYTSSVWF, the amyloid nucleation score is -0.021 ± 0.59. On to FSMSILENRYTTFELSGAYQ, for which the amyloid nucleation score was -0.722 ± 0.66.

Regarding NLHFVGTCHTFSSAYNRRET, the amyloid nucleation score was -0.95 ± 2.7. The result for ESIFFMTDTRSISLCST reads -0.04 ± 0.27; that for DRFLETICSEGSRPGSGN, 0.917 ± 0.21; that for GPDRLMDILAMPGGYSMLSM, 1.03 ± 0.54. RNWDMGHKQP showed an amyloid nucleation score of 2.66 ± 0.12. In the case of GSWFYIFRV it was 0.089 ± 0.34. In turn, LTGLVMTVCFFWKARRF returned an amyloid nucleation score of 0.845 ± 0.86. In the case of GMRLGTRSLQHQRWCAMLYL it was -1.37 ± 1.8. Take GATSFFFSFRESNPLSNNHS: the amyloid nucleation score stood at 2.79 ± 0.099. In the case of DEPLNTMRSYACWSSDSSHP it was 0.139 ± 0.48; in that of FDGMYNDVRTRNVGARYF, 0.552 ± 0.64. The result for CLPLACLKTLSNDSVWLDCA reads 0.402 ± 0.35; that for GISSCWLRRFHVAKRARPSG, -1.02 ± 2.7. The result for VSVTLLFFTVPIQGRVMQFS reads 0.148 ± 0.29; that for FDVFMRYG, “inactive”; that for SVDGL, -0.763 ± 0.2. LLDKISNRPTQYGTTVPPVP had an amyloid nucleation score of 0.573 ± 0.45. Consider KIEFIGDVRFA, for which the amyloid nucleation score came out at 0.92 ± 0.67. On to GMYRSVCDKVYRGCTIEVVV, for which the amyloid nucleation score was determined as 1.55 ± 0.54. The result for AGIKIGKEKGCHNYRFWWTV reads 0.124 ± 0.5; that for RMEQSCWMTSECRRWKGVWL, 0.827 ± 0.44. The result for RCMMPYGESKSGVLMGRYSY reads 0.393 ± 0.31; that for GLEGIRIGWSSLVSMCLWRG, -0.016 ± 0.33. The result for TTRFRNFKLRSH reads “inactive”; that for RHRDLGWRVIRWRAFMTSLW, -1.31 ± 2.1; that for HHINWPGCVSRNSYKAIYDG, -0.262 ± 0.84. Take RPYGVNR: the amyloid nucleation score was -0.271 ± 0.66. The result for TWSRAQM reads “inactive”; that for KAPAMHWLDRFVGYVPRV, -0.011 ± 0.27; that for SNQRKYGAPVKSLWEIFKSE, 1.34 ± 0.93.

On to FSAIMVRC, for which the amyloid nucleation score entry was “inactive”. The result for MVGYGECIDMWPMLVKVDVV reads -0.378 ± 0.69.

Substance KGCCLCLISMSVTNRLVEPR came in with an amyloid nucleation score of 6.294 ± 0.059. In turn, TDQCGWGTVRRSAETSLGQL displayed an amyloid nucleation score of 0.77 ± 0.78. The result for GFTMSTEGVS reads 0.781 ± 0.55; that for YHANICSKFSSLYSNL, 1.01 ± 0.93. In the case of RNGPSWYSAIPY it was “inactive”; in that of NMALCTCGLNPGNL, 0.003 ± 0.46. In the case of RGGGAEKLLQSTCNSYVVWL it was 3.66 ± 0.061. In turn, NTSVLLTVLVG had an amyloid nucleation score of 0.822 ± 0.46. Consider RSKNWMVNRDWGSKVDRLAN, for which the amyloid nucleation score is 0.089 ± 0.86. The result for GLWKGLRHSSSKWERPHIRQ reads 1.1 ± 0.62; that for IEQMCTHVNYFGD, -0.548 ± 0.86. The result for ANALDCINDWDKSSQSCQGP reads 0.812 ± 0.53; that for FVRGDKLRTTGELSSAINRS, -0.608 ± 0.57; that for MSNMHNYLRLIWDTVCIQF, -0.083 ± 0.77.

For the substance VVSRIDPCTWHCAMIKGHRY, the amyloid nucleation score was -0.332 ± 1.1. The result for NISSNRCVNNVAPSDSSTYF reads -0.091 ± 0.69. The result for SLVWVCFWGICI reads 6.67 ± 0.088; that for EGLARCQCLCLTRVIYVESA, -0.403 ± 1.4. The result for LFLHVSMVS reads -1.31 ± 1.4. The substance TRWCEWRYRSPDRYASLTGF displayed an amyloid nucleation score of -0.06 ± 0.43. As for LGSVDIRAQCLVNMNMLLSS, the amyloid nucleation score was found to be 0.308 ± 0.43. LCCRLMTTICPKLCSVLLMS gave an amyloid nucleation score of 0.217 ± 0.28. In the case of AVYMLSMCPFEYAYKRCVCG it was -1.16 ± 1.7; in that of EPAFL, 0.229 ± 0.42.

In turn, IGVVVWRPNLILRKEYLWRV had an amyloid nucleation score of -0.858 ± 2.1. On to KKWHNVIGARDLSRIYSIA, for which the amyloid nucleation score entry was “inactive”. Consider LFLCMDTYIYLNLNSGGYSG, for which the amyloid nucleation score amounted to 4.8 ± 0.1. In the case of RLLLYG it was “inactive”; in that of FQYLNLGISRHSARWTCTFL, -0.698 ± 1.4. TDYRFTRVWRRGVARS had an amyloid nucleation score of 0.707 ± 0.55. Turning to PTSLLLGINYCLFWSIYLRD, the amyloid nucleation score was determined as 1.81 ± 0.16.

YVLYCICV showed an amyloid nucleation score of 5.95 ± 0.073. The result for SLVNFVAMGARDRIPCVYKR reads -1.03 ± 2.4; that for TSFMEIVVLDAVGRQRRSSV, -0.106 ± 0.49; that for DRREGF, -0.892 ± 0.32. Regarding GLDIFIWYMMVGIVYAFIYV, the amyloid nucleation score came out at 2.38 ± 0.53.

For NHRNVMRQIDASVMGVYNTW, the amyloid nucleation score was 0.766 ± 1.2. In the case of GVLSKSSKLFNCKDYCHSKY it was 1.13 ± 0.35. The result for YMGMLA reads 2.34 ± 0.12; that for LNNAKCKLVSIFHLGVWVGM, -1.12 ± 0.96; that for TYGRASRALGDFRQITRVAS, -1.38 ± 1.7. Consider RDPYFRQCTEKQI, for which the amyloid nucleation score was 1 ± 0.85. The result for MWVCSYA reads “inactive”; that for LLLTWFFPQHASRVNMSYSS, 0.024 ± 0.39.

On to TEGPSN, for which the amyloid nucleation score result is “inactive”. In turn, MDCWENVIRQKASSSGWLEN showed an amyloid nucleation score of -0.725 ± 0.52. The result for LHLFGQ reads 0.067 ± 0.38. As to QFSCFMMFIIYE, the amyloid nucleation score worked out at 4.16 ± 0.064. For the substance GLVACQAMSNV, the amyloid nucleation score was -0.138 ± 0.44. As to VKGQHFQLKIVRRLRTFRHH, the amyloid nucleation score turned out to be 3.79 ± 0.066.

Turning to CELSDSVNGNTFNMN, the amyloid nucleation score turned out to be 2.18 ± 0.49. In the case of RSDYVNDGEYWAFRDRMMNM it was -0.126 ± 0.35. In the case of FFKLKHGNTDRSYIYYVGCA it was -0.01 ± 0.21; in that of YTSDKGKLYCGLMMG, -0.045 ± 0.59; in that of GSGVGKLCGLCSPG, 0.274 ± 0.69. The result for GLVSSSLGGYVDADSYFECD reads “inactive”; that for PHFLGQFYSDVPCDCGLCWY, 0.193 ± 0.9; that for MYPRSCIHVMCFTVVKASVG, -1.26 ± 0.74.

Take LTFRRRYRWGQGTCINFCRR: the amyloid nucleation score turned out to be 0.082 ± 0.67. KAGVSVLYLHMFLF yielded an amyloid nucleation score of -0.303 ± 0.79. In the case of YTHGG it was “inactive”; in that of QFTRLCMLRNTLFTVVENQA, 0.383 ± 0.65. In the case of FYFGTSDIPGFFNKSIYLVP it was 0.435 ± 0.38.

Substance CFCFLRFYRLQPNAQLDSKS displayed an amyloid nucleation score of 1.69 ± 0.31.
